B1: TNT-189 (antibody, mouse IgG2a, kappa)
heavy: EVQLVQSGAEVKKPGSSVKVSCKASGGTFSSYAISWVRQAPGQGLEWMGGIIPIFGTANYAQKFQGRVTITADESTSTAYMELSSLRSEDTAVYYCARGYSSSWYEPYYFDYWGQGTLVTVSSAKTTAPSVYPLAPVCGDTTGSSVTLGCLVKGYFPEPVTLTWNSGSLSSGVHTFPAVLQSDLYTLSSSVTVTSSTWPSQSITCNVAHPASSTKVDKKIEPRGPTIKPCPPCKCPAPNLLGGPSVFIFPPKIKDVLMISLSPIVTCVVVDVSEDDPDVQISWFVNNVEVHTAQTQTHREDYNSTLRVVSALPIQHQDWMSGKEFKCKVNNKDLPAPIERTISKPKGSVRAPQVYVLPPPEEEMTKKQVTLTCMVTDFMPEDIYVEWTNNGKTELNYKNTEPVLDSDGSYFMYSKLRVEKKNWVERNSYSCSVVHEGLHNHHTTKSFSRTPGRPQGFGPP
light: DIQLTQSPSSLSASVGDRVTITCRASQGISNYLAWYQQKPGKAPKLLIYAASTLQSGVPSRFSGSGSGTDFTLTISSLQPEDFATYYCQQSYSTPYTFGQGTKLEIKRADAAPTVSIFPPSSEQLTSGGASVVCFLNNFYPKDINVKWKIDGSERQNGVLNSWTDQDSKDSTYSMSSTLTLTKDEYERHNSYTCEATHKTSTSPIVKSFNRNEC
B2: TNT-188 (antibody, mouse IgG2a, kappa)
heavy: EVQLVQSGAEVKKPGSSVKVSCKASGYTFTGYYMHWVRQAPGQGLEWMGWINPNSGGTNYAQKFQGRVTMTRDTSISTAYMELRSLRSDDTAVYYCARGSALHFFGVFDYWGQGTLVTVSSAKTTAPSVYPLAPVCGDTTGSSVTLGCLVKGYFPEPVTLTWNSGSLSSGVHTFPAVLQSDLYTLSSSVTVTSSTWPSQSITCNVAHPASSTKVDKKIEPRGPTIKPCPPCKCPAPNLLGGPSVFIFPPKIKDVLMISLSPIVTCVVVDVSEDDPDVQISWFVNNVEVHTAQTQTHREDYNSTLRVVSALPIQHQDWMSGKEFKCKVNNKDLPAPIERTISKPKGSVRAPQVYVLPPPEEEMTKKQVTLTCMVTDFMPEDIYVEWTNNGKTELNYKNTEPVLDSDGSYFMYSKLRVEKKNWVERNSYSCSVVHEGLHNHHTTKSFSRTPGRPQGFGPP
light: not shown
B3: TNT-198 (antibody, mouse IgG2a, kappa)
heavy: EVQLVQSGAEVKKPGSSVKVSCKASGGTFSSYAISWVRQAPGQGLEWMGWINPNSGGTNYAQKFQGRVTMTRDTSTSTAYMELSSLRSEDTAVYYCATGYYGDLYYFDYWGQGTLVTVSSAKTTAPSVYPLAPVCGDTTGSSVTLGCLVKGYFPEPVTLTWNSGSLSSGVHTFPAVLQSDLYTLSSSVTVTSSTWPSQSITCNVAHPASSTKVDKKIEPRGPTIKPCPPCKCPAPNLLGGPSVFIFPPKIKDVLMISLSPIVTCVVVDVSEDDPDVQISWFVNNVEVHTAQTQTHREDYNSTLRVVSALPIQHQDWMSGKEFKCKVNNKDLPAPIERTISKPKGSVRAPQVYVLPPPEEEMTKKQVTLTCMVTDFMPEDIYVEWTNNGKTELNYKNTEPVLDSDGSYFMYSKLRVEKKNWVERNSYSCSVVHEGLHNHHTTKSFSRTPGRPQGFGPP
light: DIVMTQSPSSLSASVGDRVTITCRASQGISNYLAWYQQKPGKVPKLLIYAASTLQSGVPSRFSGSGSGTEFTLAISSLQPEDLATYYCQQLNSHPITFGQGTRLEIKRADAAPTVSIFPPSSEQLTSGGASVVCFLNNFYPKDINVKWKIDGSERQNGVLNSWTDQDSKDSTYSMSSTLTLTKDEYERHNSYTCEATHKTSTSPIVKSFNRNEC

Experiments:
[1] = target: T1, Human nectin-4 ECD-6His (TNT-175) (human, UniProt Q96NY8 32-349); experiment: competition ELISA; nectin-4 ECD premixed with TNT212, captured by the coat antibody; % of signal without premix antibody
T1 construct: the entry holds the extracellular domain with the C-terminal 6His tag
T1 sequence: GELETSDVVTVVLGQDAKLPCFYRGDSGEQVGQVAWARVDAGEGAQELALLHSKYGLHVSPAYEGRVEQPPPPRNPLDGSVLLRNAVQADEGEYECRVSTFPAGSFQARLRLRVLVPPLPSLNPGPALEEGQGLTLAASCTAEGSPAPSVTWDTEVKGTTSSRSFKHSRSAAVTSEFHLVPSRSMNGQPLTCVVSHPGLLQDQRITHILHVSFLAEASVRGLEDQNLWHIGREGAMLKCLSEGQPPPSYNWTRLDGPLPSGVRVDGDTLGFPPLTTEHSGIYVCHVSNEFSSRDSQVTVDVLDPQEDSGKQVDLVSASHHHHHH
Outline: (§1)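 Goat anti-mouse IgG was coated at 1 mg/mL in PBS overnight at 4° C. Premixes were applied for an hour, then rabbit anti-6×His HRP (1:4,000) for an hour at room temperature, then ABTS for 20 minutes. O.D. values, background-corrected, were reported relative to nectin-4 alone at its lowest dilution.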

[2] = target: T1, Human nectin-4 ECD-6His (TNT-175); experiment: competition ELISA; nectin-4 ECD premixed with TNT202, captured by the coat antibody; % of signal without premix antibody
Outline: as §1

[3] = target: T1, Human nectin-4 ECD-6His (TNT-175); experiment: competition ELISA; nectin-4 ECD premixed with TNT207, captured by the coat antibody; % of signal without premix antibody
Outline: as §1

[4] = target: T1, Human nectin-4 ECD-6His (TNT-175); experiment: competition ELISA; nectin-4 ECD premixed with TNT209, captured by the coat antibody; % of signal without premix antibody
Outline: as §1

[5] = target: T1, Human nectin-4 ECD-6His (TNT-175); experiment: competition ELISA; nectin-4 ECD premixed with TNT206, captured by the coat antibody; % of signal without premix antibody
Outline: as §1

[6] = target: T1, Human nectin-4 ECD-6His (TNT-175); experiment: competition ELISA; nectin-4 ECD premixed with TNT211, captured by the coat antibody; % of signal without premix antibody
Outline: as §1

[7] = target: T1, Human nectin-4 ECD-6His (TNT-175); experiment: competition ELISA; nectin-4 ECD premixed with TNT203, captured by the coat antibody; % of signal without premix antibody
Outline: as §1

[8] = target: T1, Human nectin-4 ECD-6His (TNT-175); experiment: competition ELISA; nectin-4 ECD premixed with TNT201, captured by the coat antibody; % of signal without premix antibody
Outline: as §1

human nectin-4 on cells = target: T2, human nectin-4 on cells (human, UniProt Q96NY8 32-510); experiment: flow cytometry MFI, MNK74 (nectin-4 positive) over AGS (negative)
T2 construct: whole, on cells; also called PVRL4
T2 sequence (looked up): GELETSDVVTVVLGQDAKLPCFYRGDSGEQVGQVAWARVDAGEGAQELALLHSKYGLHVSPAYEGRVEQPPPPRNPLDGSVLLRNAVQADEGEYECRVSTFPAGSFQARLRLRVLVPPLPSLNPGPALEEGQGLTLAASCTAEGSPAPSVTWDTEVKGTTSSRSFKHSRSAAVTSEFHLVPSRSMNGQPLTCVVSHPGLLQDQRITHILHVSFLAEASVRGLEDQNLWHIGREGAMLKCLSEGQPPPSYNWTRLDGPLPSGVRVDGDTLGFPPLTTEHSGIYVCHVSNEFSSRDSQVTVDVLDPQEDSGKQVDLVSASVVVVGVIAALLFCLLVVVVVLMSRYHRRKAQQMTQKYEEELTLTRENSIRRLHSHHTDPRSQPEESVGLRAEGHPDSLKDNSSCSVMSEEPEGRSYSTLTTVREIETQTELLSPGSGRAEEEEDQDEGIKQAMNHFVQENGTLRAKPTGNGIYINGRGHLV

[9] = target: T1, Human nectin-4 ECD-6His (TNT-175); experiment: competition ELISA; nectin-4 ECD premixed with TNT205, captured by the coat antibody; % of signal without premix antibody
Outline: as §1

[10] = target: T1, Human nectin-4 ECD-6His (TNT-175); experiment: competition ELISA; nectin-4 ECD premixed with TNT210, captured by the coat antibody; % of signal without premix antibody
Outline: as §1

[11] = target: T1, Human nectin-4 ECD-6His (TNT-175); experiment: competition ELISA; nectin-4 ECD premixed with TNT204, captured by the coat antibody; % of signal without premix antibody
Outline: as §1

[12] = target: T1, Human nectin-4 ECD-6His (TNT-175); experiment: SPR ProteOn, mAb on protein A
Description: Initial testing of binding of nectin-4 antibodies to nectin-4. […] Biotinylated protein A (15 μg/mL) was immobilized to the surface of an NLC chip. 30 nM of purified mAb supernatant was diluted in PBS-T and captured over the protein A surface. Serial dilutions of human nectin-4 were injected over the mAb-coated chips, and binding kinetics were determined. Chips were regenerated using 4:1 v/v of IgG elution butter/4M NaCl.

[13] = target: T1, Human nectin-4 ECD-6His (TNT-175); experiment: competition ELISA; nectin-4 ECD premixed with TNT208, captured by the coat antibody; % of signal without premix antibody
Outline: as §1

Binder	% of Positive [1] [%]	% of Positive [2] [%]	% of Positive [3] [%]	% of Positive [4] [%]	% of Positive [5] [%]	% of Positive [6] [%]	% of Positive [7] [%]	% of Positive [8] [%]	Fold-change of binding to MNK74 compared to control AGS (human nectin-4 on cells) [fold]	% of Positive [9] [%]	% of Positive [10] [%]	% of Positive [11] [%]	Kd [12] [nM]	koff [12] [s⁻¹]	kon [12] [M⁻¹ s⁻¹]	% of Positive [13] [%]
B1	3.1	4.3	2.4	26.7	10.5	27	29.3	1	5	44.4	2.7	3.9	5.09	0.00423	832000	4.3
B2	10.1	12.8	7.5	43.7	20	35.4	40	2.7	4.3	52.5	8	9.2	7.03	0.00153	217000	12.7
B3	1.9	2.5	1	26	5.4	19.5	29.8	0.9	5.9	56.9	0.8	2.2	20.2	0.00138	68400	2.1

From US20240382610A1 (TALLAC THERAPEUTICS, published 2024)
